Measurements taken from publication PMC6223037, “Dye-decolorizing peroxidases in Irpex lacteus combining the catalytic properties of heme peroxidases and laccase play important roles in ligninolytic system” (Biotechnology for Biofuels, 2018).

B1: IlDyP2 (Irpex lacteus) (protein)
chain: YHVKRARSSPLIGSFPGQPPLPTIAEVQSSSAGNDSLPFENIQGDILVGMKKDKEKFVFFHINNATTFKSFLKTYAPANITSVQTIIGPASGQPQAFVNLAFSHTGFGALGVADDLQDTAFTAGQFADAPSFGDDTSTWEEAFKGTNVDGVFLIGSDDVTTTNQYRDDLKAKLGDAWTVLLDLDSAARPGAEKGHEHFGYLDGISNPTIPGFGTPFPGQAVVDSGVIFAGRTNDPVTNRPSWALDGSFLVFRKLKQLVPEFHKWTLDNALQNQAGNLTVEEGALLLGSRMFGRWNSGAPIDLTPDVDDPTLGNDPQRNNDFNYIHPGEDLTTDETRCPFTAHVRKTNPRDLEAQGLIPDLFHAIRAGTPYGPEVTDAESNSNTTSIDRGLAFVEYQSVISNGFRFQQLNWANNANFPFNKSEPLGLDPVIGQGTRQTFGLDPRNASDSLTIPQIIISNGGEYFFSPSITALVEHFGA
B2: IlDyP1 (Irpex lacteus) (protein)
chain: YHVKRARTTSLLGSFPGQGALPTVAQVQSTSSGNDSLPLENIQGDILVGMKKQKEQFVFFHINNATTFKKVLKTYAPANITSIQTLLSAPSAQPLAFVNLAFSQSGATALGVTDDLGDSFFSAGQFADASALGDDTSNWDSTFTGTDVHGVFLIGSDETSFVEQYQSDLEAKLGDAWTVSLTIASAARPGDEAGHEHFGYLDGISNPTITGFGTALPGQSVVDPGIILAGRTGDTVSRPSWALDGSFLVFRKLKQLVPEFNKWTLANAIQNASGNLTAQEGADLLGSRMFGRWKSGAPIDLSPDVDDASLGTDPQRNNNFNYTHAGSDITSDESRCPFSAHIRKTNPRDLESVIGHANHAIRAGTPYGPELTDDESSSGTTSTDRGLAFVEYQSNIGNGFRTQQEVWANAAAFPFGKTESIGLDPVIGQGDRTTYGLNAQNVTESYSVPSFVISNGGEYFFSPSITALVETFAA

Legend:
[1] = substrate: COc1ccccc1O; experiment: purified protein; conditions: 50 mM sodium tartrate
[2] = substrate: CCn1c(=NN=c2sc3cc(S(=O)(=O)O)ccc3n2CC)sc2cc(S(=O)(=O)O)ccc21; experiment: peroxidase oxidation, spectrophotometric; nonlinear fit; assay type: biochemical, Irpex lacteus; conditions: pH 3, 25 °C, 50 mM sodium tartrate, co-substrate H2O2
Excerpt: (§1) peroxidase oxidation, spectrophotometric; nonlinear fit on IlDyP2

[3] = substrate: COc1cccc(OC)c1O; experiment: as above; assay type: biochemical, Irpex lacteus; conditions: pH 3, 25 °C, 50 mM sodium tartrate, co-substrate H2O2
Excerpt: as §1

[4] = substrate: CCn1c(=NN=c2sc3cc(S(=O)(=O)O)ccc3n2CC)sc2cc(S(=O)(=O)O)ccc21; experiment: as above; assay type: biochemical, Irpex lacteus; conditions: pH 4, 25 °C, 50 mM sodium tartrate, co-substrate H2O2
Excerpt: (§2) peroxidase oxidation, spectrophotometric; nonlinear fit on IlDyP1

[5] = substrate: COc1cccc(OC)c1O; experiment: as above; assay type: biochemical, Irpex lacteus; conditions: pH 4, 25 °C, 50 mM sodium tartrate, co-substrate H2O2
Excerpt: as §2

[6] = pH 3, 25 °C, co-substrate H2O2, pH 3.0
[7] = pH 4, 25 °C, co-substrate H2O2, pH 4.0

Protein	Km [1, 6]	kcat [1, 6]	kcat/Km [1, 6]	Km [2]	kcat [2]	kcat/Km [2]	Km [3]	kcat [3]	kcat/Km [3]	Km [1, 7]	kcat [1, 7]	kcat/Km [1, 7]	Km [4]	kcat [4]	kcat/Km [4]	Km [5]	kcat [5]	kcat/Km [5]
B1	229.1 ± 15.9 µM	49.7 s⁻¹	220000 M⁻¹ s⁻¹	125.0 ± 1.4 µM	396 s⁻¹	3.2e+06 M⁻¹ s⁻¹	1631.7 ± 10.9 µM	561 ± 19.3 s⁻¹	340000 ± 20000 M⁻¹ s⁻¹									
B2										592.1 ± 53.0 µM	49.2 s⁻¹	83000 M⁻¹ s⁻¹	693.1 ± 8.5 µM	356 ± 11.2 s⁻¹	510000 ± 10000 M⁻¹ s⁻¹	892.7 ± 81.5 µM	199 ± 12.6 s⁻¹	220000 ± 10000 M⁻¹ s⁻¹
